Measured values: the supplement of paper PMC10567573
± gives the standard deviation.

Test: protein stability index of a GFP-peptide fusion (GPS, HEK-293T) (PSI 1-6); higher = more stable
Conditions: c terminus: a fixed tail appended
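Also: 24-mer peptide tiles fused after GFP, lentivirally expressed, FACS-sorted into six equal bins by GFP/DsRed ratio, decoded by Illumina sequencing, PSI is the read-weighted mean bin number.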

Sequence	protein stability index (treatment: DMSO)	protein stability index (treatment: MLN4924 1 uM, 8 h)
LYHSVKQGPISTKELADFIRERAT [FCHO1]	2.35 ± 0.14	2.4 ± 0.29
MACAYAPSGCAIACGGLDNKCSVY [GNB5]	2.44 ± 0.13	2.31 ± 0.25
MADSASESDTDGAGGNSSSSAAMQ [CCDC6]	5.51 ± 0.08	5.38 ± 0.32
MAKSVKYTVNFLEAKEGDLHRIEI [CARM1]	2.55 ± 0.61	2.46 ± 0.58
MALRGPAGLGPGSRRPLDEAVAGA [DENND6A]	4.12 ± 0.42	4.53 ± 0.19
MARGRKMSKPRAVEAAAAAAAVAA [KMT5A]		4.4 ± 0.55
MASLSRPSLPSCLCSFLLLLLLQV [MOG]	2.5 ± 0.41	2.28 ± 0.19
MAVLKLTDQPPLVQAIFSGDPEEI [ANKRD44]	3.37 ± 0.28	3.43 ± 0.21
MDDSTEREQSRLTSCLKKREEMKL [TNFSF13B]	5.04 ± 0.19	5.16 ± 0.11
MEADSPAGPGAPEPLAEGAAAEFS [SLC35F2]	5.5 ± 0.27	5.48 ± 0.29
MEEEDPMPRQISRQSSVTESTLYP [TPRG1]	5.1 ± 0.32	5.26 ± 0.34
MEEQREALRKIIKTLAVKNEEIQS [FSD1]	3.15 ± 0.1	3.16 ± 0.27
MEEVLLLGLKDKEGYTSFWNDCIS [GOLPH3L]	2.29 ± 0.29	2.61 ± 0.27
MEGQRQESHATLTLAQAHFNNGEY [TTC32]	4.42 ± 0.33	4.39 ± 0.18
MEMAKFRYILPVYGICREPVGLVM [RIPK4]	2.69 ± 0.39	3.08 ± 0.86
MERPDKAALNALQPPEFRNESSLA [VMA21]	4.77 ± 0.26	4.84 ± 0.088
MGVSSVIHPKNPHAPTIHFNYRYF [CPOX]	2.16 ± 0.35	2.12 ± 0.18
MLCSQPGLANSSRVRGRVGTIRPV [C22orf15]	3.23 ± 0.27	3.37 ± 0.2
MNCLPSNRTLWRLDLAGNNIPGDV [LRRC45]	2.75 ± 0.37	2.86 ± 0.4
MPAHLLQDDISSSYTTTTTITAPP [SCD]	3.99 ± 0.21	3.88 ± 0.28
MPDEPVEAPALPAPAAPMVSKGAE [BRD3]	5.17 ± 0.37	5.37 ± 0.3
MPGDTDDAFPVHRVMMASASDYFK [KLHL13]	3.66 ± 0.35	3.6 ± 0.13
MPKNSKVTQREHSSEHVTESVADL [SLC6A17]	5.4 ± 0.14	5.45 ± 0.085

Sequence	protein stability index (treatment: DMSO)	protein stability index (treatment: MLN4924 1 uM, 8 h)
MQQLYQVQLAQQQAALQKQQEVVV [ACBD3]	2.96 ± 0.19	3.05 ± 0.22
MRDQYEQMAEKNRRDAETWFLSKT [KRT16]	4.29 ± 0.089	4.31 ± 0.12
MRLSWSVAQGPFDSFVVQYEDTNG [TNXB]	2.26 ± 0.17	2.21 ± 0.12
MRVGPVRSAMSGASQPRGPALLFP [TRIB1]	3.48 ± 0.65	3.08 ± 0.24
MSGGPMGGRPGGRGAPAVQQNIPS [WAS]	4.31 ± 0.35	4.62 ± 0.18
MSRRTRCEDLDELHYQDTDSDVPE [MYBL2]	5.33 ± 0.2	5.59 ± 0.2
MSSQVVGIEPLYIKAEPASPDSPK [ESRRA]	4.86 ± 0.12	4.89 ± 0.095
MSTNTVGLGLPMSRSQNTDMVQKS [CLINT1]	4.59 ± 0.13	4.7 ± 0.28
MTESLEASEFLEQSMSQTRELLLD [RSPH3]	4.9 ± 0.12	4.98 ± 0.32
MTPQLFINYKLKSVAHLPWRMLTY [CLPTM1]	2.57 ± 0.71	2.45 ± 0.56
MVVKTFMDMDQDSEEEKELYLNLA [PDS5B]	2.79 ± 0.22	3 ± 0.23
NALVTKLLLDCGAEVNAVDNEGNS [FEM1B]	3.64 ± 0.19	3.72 ± 0.17
NASHKLEVRLVPVSFEDPEFKSSF [ATE1]	2.65 ± 0.25	3.18 ± 0.19
NCHIGGSFSEETEKKFEHFSGLLN [LOXL2]	3.02 ± 0.27	3.44 ± 0.32
NEEIQSFIYSLKQMLLNVEANSAK [FSD1]	2.99 ± 0.73	2.72 ± 0.38
NEWRRPIIQFVESGDDKNSNYFSM [TRIM29]	3 ± 0.3	3.12 ± 0.34
NFAVQHRYLFEEDNLLRSTQKLSH [MATN2]	2.97 ± 0.24	2.85 ± 0.27
NFDSIYICPSTFACAQLATGAACR [HDAC6]	2.24 ± 0.21	2.16 ± 0.26
NGATDDSKTNLIVNYLPQNMTQDE [ELAVL3]	5.08 ± 0.29	5.21 ± 0.041
NGNEEDNHLPPQTKRSSRNPVFQD [FAM104A]	5.16 ± 0.29	5.26 ± 0.2
NGNSYICKCSEGFVLAEDGRRCKK [MATN2]	3.75 ± 0.28	4.1 ± 0.19
NICELAARMLFSAVEWARNIPFFP [NR2F2]	3.61 ± 0.17	3.23 ± 0.06
